How the values were obtained:
Test in all cases: EMSA
[1] = target: Rec114(388-428) K399A/R400A;Mei4N (Saccharomyces cerevisiae;Saccharomyces cerevisiae) (UniProt P29467); conditions: EMSA: 25 mM Tris-HCl pH 7.4, 100 mM NaCl, 5 ng DNA, 20 min, room temperature; AFM: 25 mM HEPES-NaOH pH 7.4, 5 mM MgCl2, 50 mM NaCl, 10% glycerol, 30 min, RT …
[2] = target: Rec114(386-428);Mei4N (Saccharomyces cerevisiae;Saccharomyces cerevisiae) (UniProt P29467); conditions: EMSA: 25 mM Tris-HCl pH 7.4, 100 mM NaCl, 5 ng DNA, 20 min, room temperature; AFM: 25 mM HEPES-NaOH pH 7.4, 5 mM MgCl2, 50 mM NaCl, 10% glycerol, 30 min, RT …
[3] = target: Rec114C;Mei4N-ybbR (Saccharomyces cerevisiae;Saccharomyces cerevisiae) (UniProt P32841); conditions: C50, unlabeled; EMSA: 25 mM Tris-HCl pH 7.4, 100 mM NaCl, 5 ng DNA, 20 min, room temperature; AFM: 25 mM HEPES-NaOH pH 7.4, 5 mM MgCl2, 50 mM NaCl, 10% glycerol, 30 min, RT …
[4] = test system: Rec114(325-428);Mei4(1-90) (Saccharomyces cerevisiae;Saccharomyces cerevisiae); conditions: EMSA: 25 mM Tris-HCl pH 7.4, 100 mM NaCl, 5 ng DNA, 20 min, room temperature; AFM: 25 mM HEPES-NaOH pH 7.4, 5 mM MgCl2, 50 mM NaCl, 10% glycerol, 30 min, RT …
[5] = target: Rec114(388-428) R395A/K396A;Mei4N (Saccharomyces cerevisiae;Saccharomyces cerevisiae) (UniProt P29467); conditions: EMSA: 25 mM Tris-HCl pH 7.4, 100 mM NaCl, 5 ng DNA, 20 min, room temperature; AFM: 25 mM HEPES-NaOH pH 7.4, 5 mM MgCl2, 50 mM NaCl, 10% glycerol, 30 min, RT …
[6] = target: Rec114C;Mei4N-ybbR-LD650 (Saccharomyces cerevisiae;Saccharomyces cerevisiae) (UniProt P32841); conditions: C50, single experiment; EMSA: 25 mM Tris-HCl pH 7.4, 100 mM NaCl, 5 ng DNA, 20 min, room temperature; AFM: 25 mM HEPES-NaOH pH 7.4, 5 mM MgCl2, 50 mM NaCl, 10% glycerol, 30 min, RT …
[7] = target: Rec114(388-428);Mei4N (Saccharomyces cerevisiae;Saccharomyces cerevisiae) (UniProt P29467); conditions: EMSA: 25 mM Tris-HCl pH 7.4, 100 mM NaCl, 5 ng DNA, 20 min, room temperature; AFM: 25 mM HEPES-NaOH pH 7.4, 5 mM MgCl2, 50 mM NaCl, 10% glycerol, 30 min, RT …
Rec114C;Mei4N = target: T1, Rec114C;Mei4N (Saccharomyces cerevisiae;Saccharomyces …, UniProt P32841;P29467 375-428;1-43, |); conditions: EMSA: 25 mM Tris-HCl pH 7.4, 100 mM NaCl, 5 ng DNA, 20 min, room temperature; AFM: 25 mM HEPES-NaOH pH 7.4, 5 mM MgCl2, 50 mM NaCl, 10% glycerol, 30 min, RT …
T1 sequence 1: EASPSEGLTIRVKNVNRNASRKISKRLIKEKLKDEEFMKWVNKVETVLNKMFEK
T1 sequence 2: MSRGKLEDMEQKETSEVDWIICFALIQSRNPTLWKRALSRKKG

[8] = target: Rec114(388-428) K417A/K424A;Mei4N (Saccharomyces cerevisiae;Saccharomyces cerevisiae) (UniProt P29467); conditions: EMSA: 25 mM Tris-HCl pH 7.4, 100 mM NaCl, 5 ng DNA, 20 min, room temperature; AFM: 25 mM HEPES-NaOH pH 7.4, 5 mM MgCl2, 50 mM NaCl, 10% glycerol, 30 min, RT …
[9] = test system: Rec114(388-428);Mei4(13-43) (Saccharomyces cerevisiae;Saccharomyces cerevisiae); conditions: EMSA: 25 mM Tris-HCl pH 7.4, 100 mM NaCl, 5 ng DNA, 20 min, room temperature; AFM: 25 mM HEPES-NaOH pH 7.4, 5 mM MgCl2, 50 mM NaCl, 10% glycerol, 30 min, RT …
[10] = target: Rec114(388-428) K403A/K407A;Mei4N (Saccharomyces cerevisiae;Saccharomyces cerevisiae) (UniProt P29467); conditions: EMSA: 25 mM Tris-HCl pH 7.4, 100 mM NaCl, 5 ng DNA, 20 min, room temperature; AFM: 25 mM HEPES-NaOH pH 7.4, 5 mM MgCl2, 50 mM NaCl, 10% glycerol, 30 min, RT …
[11] = target: T2, Rec114(386-428);Mei4N (Saccharomyces cerevisiae;Saccharomyces cerevisiae) (UniProt P32841+P29467); conditions: EMSA: 25 mM Tris-HCl pH 7.4, 100 mM NaCl, 5 ng DNA, 20 min, room temperature; AFM: 25 mM HEPES-NaOH pH 7.4, 5 mM MgCl2, 50 mM NaCl, 10% glycerol, 30 min, RT …
T2 sequence 1: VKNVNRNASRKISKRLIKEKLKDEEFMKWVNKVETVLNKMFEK
T2 sequence 2: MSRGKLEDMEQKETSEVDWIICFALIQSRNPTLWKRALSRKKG

[12] = target: T3, Rec114(388-428) R395A/K396A;Mei4N R395A;K396A (Saccharomyces cerevisiae;Saccharomyces cerevisiae) (UniProt P32841+P29467); conditions: EMSA: 25 mM Tris-HCl pH 7.4, 100 mM NaCl, 5 ng DNA, 20 min, room temperature; AFM: 25 mM HEPES-NaOH pH 7.4, 5 mM MgCl2, 50 mM NaCl, 10% glycerol, 30 min, RT …
T3 sequence 1: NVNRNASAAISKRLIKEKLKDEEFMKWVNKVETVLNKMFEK
T3 sequence 2: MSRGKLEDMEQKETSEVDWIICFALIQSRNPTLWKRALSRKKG

[13] = target: T4, mREC114C;mMEI4N (Mus musculus;Mus musculus) (UniProt Q9CWH4+Q8BRM6); conditions: EMSA: 25 mM Tris-HCl pH 7.4, 100 mM NaCl, 5 ng DNA, 20 min, room temperature; AFM: 25 mM HEPES-NaOH pH 7.4, 5 mM MgCl2, 50 mM NaCl, 10% glycerol, 30 min, RT …
T4 sequence 1: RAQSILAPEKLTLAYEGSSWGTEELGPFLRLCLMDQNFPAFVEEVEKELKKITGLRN
T4 sequence 2: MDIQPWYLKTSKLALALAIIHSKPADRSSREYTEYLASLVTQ

[14] = target: T5, Rec114(388-428) K417A/K424A;Mei4N K417A;K424A (Saccharomyces cerevisiae;Saccharomyces cerevisiae) (UniProt P32841+P29467); conditions: EMSA: 25 mM Tris-HCl pH 7.4, 100 mM NaCl, 5 ng DNA, 20 min, room temperature; AFM: 25 mM HEPES-NaOH pH 7.4, 5 mM MgCl2, 50 mM NaCl, 10% glycerol, 30 min, RT …
T5 sequence 1: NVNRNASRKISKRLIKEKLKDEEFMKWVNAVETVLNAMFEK
T5 sequence 2: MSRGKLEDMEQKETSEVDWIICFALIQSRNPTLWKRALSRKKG

[15] = target: T6, Rec114C;Mei4N-ybbR (Saccharomyces cerevisiae;Saccharomyces cerevisiae) (UniProt P32841+P29467); conditions: EMSA: 25 mM Tris-HCl pH 7.4, 100 mM NaCl, 5 ng DNA, 20 min, room temperature; AFM: 25 mM HEPES-NaOH pH 7.4, 5 mM MgCl2, 50 mM NaCl, 10% glycerol, 30 min, RT …
T6 sequence 1: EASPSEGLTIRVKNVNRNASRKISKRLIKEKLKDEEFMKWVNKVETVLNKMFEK
T6 sequence 2: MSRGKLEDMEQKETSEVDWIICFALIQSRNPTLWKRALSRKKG

[16] = target: T7, Rec114C;Mei4N-ybbR-LD650 (Saccharomyces cerevisiae;Saccharomyces cerevisiae) (UniProt P32841+P29467); conditions: EMSA: 25 mM Tris-HCl pH 7.4, 100 mM NaCl, 5 ng DNA, 20 min, room temperature; AFM: 25 mM HEPES-NaOH pH 7.4, 5 mM MgCl2, 50 mM NaCl, 10% glycerol, 30 min, RT …
T7 sequence 1: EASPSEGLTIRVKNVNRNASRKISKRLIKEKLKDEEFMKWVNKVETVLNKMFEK
T7 sequence 2: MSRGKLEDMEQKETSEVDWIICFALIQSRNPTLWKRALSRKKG

[17] = target: T8, Rec114C;Mei4N (Saccharomyces cerevisiae;Saccharomyces cerevisiae) (UniProt P32841+P29467); conditions: EMSA: 25 mM Tris-HCl pH 7.4, 100 mM NaCl, 5 ng DNA, 20 min, room temperature; AFM: 25 mM HEPES-NaOH pH 7.4, 5 mM MgCl2, 50 mM NaCl, 10% glycerol, 30 min, RT …
T8 sequence 1: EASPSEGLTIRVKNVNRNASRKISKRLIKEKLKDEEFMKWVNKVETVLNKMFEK
T8 sequence 2: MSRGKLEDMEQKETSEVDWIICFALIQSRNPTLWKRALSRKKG

[18] = target: T9, Rec114(388-428);Mei4N (Saccharomyces cerevisiae;Saccharomyces cerevisiae) (UniProt P32841+P29467); conditions: EMSA: 25 mM Tris-HCl pH 7.4, 100 mM NaCl, 5 ng DNA, 20 min, room temperature; AFM: 25 mM HEPES-NaOH pH 7.4, 5 mM MgCl2, 50 mM NaCl, 10% glycerol, 30 min, RT …
T9 sequence 1: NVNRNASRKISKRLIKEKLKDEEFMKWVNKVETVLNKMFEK
T9 sequence 2: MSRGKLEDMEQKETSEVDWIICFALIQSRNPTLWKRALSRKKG

[19] = target: T10, Rec114(388-428) K399A/R400A;Mei4N K399A;R400A (Saccharomyces cerevisiae;Saccharomyces cerevisiae) (UniProt P32841+P29467); conditions: EMSA: 25 mM Tris-HCl pH 7.4, 100 mM NaCl, 5 ng DNA, 20 min, room temperature; AFM: 25 mM HEPES-NaOH pH 7.4, 5 mM MgCl2, 50 mM NaCl, 10% glycerol, 30 min, RT …
T10 sequence 1: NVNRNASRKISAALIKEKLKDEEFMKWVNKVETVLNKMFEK
T10 sequence 2: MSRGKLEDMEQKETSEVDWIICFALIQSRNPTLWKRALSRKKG

[20] = target: T11, Rec114(325-428);Mei4(1-90) (Saccharomyces cerevisiae;Saccharomyces cerevisiae) (UniProt P32841+P29467); conditions: EMSA: 25 mM Tris-HCl pH 7.4, 100 mM NaCl, 5 ng DNA, 20 min, room temperature; AFM: 25 mM HEPES-NaOH pH 7.4, 5 mM MgCl2, 50 mM NaCl, 10% glycerol, 30 min, RT …
T11 sequence 1: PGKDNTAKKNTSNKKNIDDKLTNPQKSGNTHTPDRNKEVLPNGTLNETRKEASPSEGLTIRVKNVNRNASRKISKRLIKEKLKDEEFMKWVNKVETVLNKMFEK
T11 sequence 2: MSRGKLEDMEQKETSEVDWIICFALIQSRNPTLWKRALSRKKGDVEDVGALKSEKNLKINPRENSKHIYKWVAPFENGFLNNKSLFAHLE

[21] = target: T12, Rec114(388-428);Mei4(13-43) (Saccharomyces cerevisiae;Saccharomyces cerevisiae) (UniProt P32841+P29467); conditions: EMSA: 25 mM Tris-HCl pH 7.4, 100 mM NaCl, 5 ng DNA, 20 min, room temperature; AFM: 25 mM HEPES-NaOH pH 7.4, 5 mM MgCl2, 50 mM NaCl, 10% glycerol, 30 min, RT …
T12 sequence 1: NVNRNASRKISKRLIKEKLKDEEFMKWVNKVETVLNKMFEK
T12 sequence 2: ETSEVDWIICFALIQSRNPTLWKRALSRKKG

[22] = target: T13, Rec114(388-428) K403A/K407A;Mei4N K403A;K407A (Saccharomyces cerevisiae;Saccharomyces cerevisiae) (UniProt P32841+P29467); conditions: EMSA: 25 mM Tris-HCl pH 7.4, 100 mM NaCl, 5 ng DNA, 20 min, room temperature; AFM: 25 mM HEPES-NaOH pH 7.4, 5 mM MgCl2, 50 mM NaCl, 10% glycerol, 30 min, RT …
T13 sequence 1: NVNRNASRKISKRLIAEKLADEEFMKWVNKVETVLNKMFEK
T13 sequence 2: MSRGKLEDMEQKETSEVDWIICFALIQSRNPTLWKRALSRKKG

In the case of 150-bp DNA, the K half [1] is reported as 2000 nM, the K half [2] is reported as 110 nM and the K half [3] is reported as 90 nM. The K half [4] was 90 nM, the K half [5] was 1000 nM and the K half [6] was 90 nM. For the same substance, the K half [7] was 110 nM, the K half (Rec114C;Mei4N) was 90 nM and the K half [8] was 900 nM. It also gave a K half [9] of 100 nM and a K half [10] of 1000 nM.

In the case of “ATCTGGCTCGCCTGACGGGATGCGACGAATTTTCGCCGCCCCATAAAGTACGCCCACGACTCGTTCGCACTGGCCCGTGCCGTGGAGTAGCTCATCTGGGCGTAATTCCGGGAAAGCTGCTCATACGAGACACCCAGCCCGGCAGCGATAT (double strand) [150-bp DNA]”, the K half [11] is reported as 110 nM, the K half [12] is reported as 1000 nM and the binding [13] is reported as “binds more weakly”. For the same substance, the K half [14] was 900 nM, the K half [15] was 90 nM and the K half [16] was 90 nM. The K half [17] was 90 nM, the K half [18] was 110 nM and the K half [19] was 2000 nM. It also gave a K half [20] of 90 nM, a K half [21] of 100 nM and a K half [22] of 1000 nM.

Source: publication PMC10393192, “Structure and DNA-bridging activity of the essential Rec114–Mei4 trimer interface”
